Experimental data from the supplement of paper PMC9112550, “Optimization of the antimicrobial peptide Bac7 by deep mutational scanning” (BMC Biology, 2022).

Tested on: Escherichia coli TOP10
Assay: shrunken log2 fold change of peptide-encoding DNA abundance (4.5 h post-induction vs induction); higher = less antimicrobial activity (less host growth inhibition)
Details: time post-induction: 4.5 h; library: site-saturation at positions 5, 18, 19, 20
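Further: peptides expressed intracellularly from a pBAD plasmid library in pooled LB shake-flask culture, induced with 0.3% L-arabinose, DNA abundance read by NGS, three biological replicates, DESeq2 with apeglm shrinkage.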

In order of falling “shrunken log2 fold change” value:
1. RRIRNRPPRLPRPRPRPNVAPRP  3.26
2. RRIRWRPPRLPRPRPRPTAWPRP  2
3. RRIRGRPPRLPRPRPRPHAGPRP  1.06
4. RRIRGRPPRLPRPRPRPPIDPRP  0.888
5. RRIRPRPPRLPRPRPRPLRTPRP  0.831
6. RRIRWRPPRLPRPRPRPTQDPRP  0.755
7. RRIRGRPPRLPRPRPRPTAPPRP  0.71
8. RRIRARPPRLPRPRPRPGPMPRP  0.676
9. RRIRWRPPRLPRPRPRPICWPRP  0.646
10. RRIRSRPPRLPRPRPRPTRPPRP  0.645
11. RRIRMRPPRLPRPRPRPVSAPRP  0.617
12. RRIRVRPPRLPRPRPRPSVAPRP  0.595
13. RRIRKRPPRLPRPRPRPRFCPRP  0.554
14. RRIRWRPPRLPRPRPRPGMGPRP  0.525
15. RRIRDRPPRLPRPRPRPPWRPRP  0.499
16. RRIRWRPPRLPRPRPRPPVEPRP  0.392
17. RRIRIRPPRLPRPRPRPVWRPRP  0.391
18. RRIRGRPPRLPRPRPRPIMHPRP  0.341
19. RRIRERPPRLPRPRPRPAPAPRP  0.305
20. RRIRKRPPRLPRPRPRPTNQPRP  0.289
21. RRIRDRPPRLPRPRPRPEYKPRP  0.27
22. RRIRPRPPRLPRPRPRPACVPRP  0.26
23. RRIRFRPPRLPRPRPRPGCCPRP  0.258
24. RRIRQRPPRLPRPRPRPIGWPRP  0.256
25. RRIRCRPPRLPRPRPRPHWAPRP  0.244
26. RRIRPRPPRLPRPRPRPHQSPRP  0.238
27. RRIRWRPPRLPRPRPRPLVQPRP  0.23
28. RRIRQRPPRLPRPRPRPFWDPRP  0.213
29. RRIRKRPPRLPRPRPRPKIMPRP  0.193
30. RRIRQRPPRLPRPRPRPSRAPRP  0.19
31. RRIRMRPPRLPRPRPRPQEQPRP  0.186
32. RRIRRRPPRLPRPRPRPQRCPRP  0.177
33. RRIRTRPPRLPRPRPRPECEPRP  0.154
34. RRIRPRPPRLPRPRPRPVQWPRP  0.151
35. RRIRWRPPRLPRPRPRPTCVPRP  0.145
36. RRIRPRPPRLPRPRPRPCWVPRP  0.143
37. RRIRPRPPRLPRPRPRPNGEPRP  0.137
38. RRIRQRPPRLPRPRPRPWLAPRP  0.136
39. RRIRMRPPRLPRPRPRPCDTPRP  0.13
40. RRIRKRPPRLPRPRPRPLMEPRP  0.124
41. RRIRNRPPRLPRPRPRPVVRPRP  0.12
42. RRIRVRPPRLPRPRPRPMIVPRP  0.109
43. RRIRPRPPRLPRPRPRPTTEPRP  0.109
44. RRIRHRPPRLPRPRPRPMHEPRP  0.0983
45. RRIRMRPPRLPRPRPRPTSKPRP  0.0886
46. RRIRWRPPRLPRPRPRPWNKPRP  0.087
47. RRIRMRPPRLPRPRPRPAENPRP  0.084
48. RRIRARPPRLPRPRPRPWMSPRP  0.0814
49. RRIRHRPPRLPRPRPRPIIEPRP  0.0811
50. RRIRGRPPRLPRPRPRPDRNPRP  0.0753
51. RRIRPRPPRLPRPRPRPKWCPRP  0.0741
52. RRIRMRPPRLPRPRPRPSDRPRP  0.0714
53. RRIRTRPPRLPRPRPRPHPNPRP  0.0697
54. RRIRQRPPRLPRPRPRPRDIPRP  0.0657
55. RRIRMRPPRLPRPRPRPDGVPRP  0.0632
56. RRIRWRPPRLPRPRPRPTMFPRP  0.0589
57. RRIRDRPPRLPRPRPRPDEIPRP  0.0508
58. RRIRPRPPRLPRPRPRPDSGPRP  0.0463
59. RRIRGRPPRLPRPRPRPHQKPRP  0.0462
60. RRIRHRPPRLPRPRPRPASQPRP  0.045
61. RRIRMRPPRLPRPRPRPMYGPRP  0.0383
62. RRIRMRPPRLPRPRPRPHLQPRP  0.0376
63. RRIRQRPPRLPRPRPRPDACPRP  0.0301
64. RRIRKRPPRLPRPRPRPKHFPRP  0.024
65. RRIRERPPRLPRPRPRPELGPRP  0.0169
66. RRIRARPPRLPRPRPRPIKNPRP  0.00937
67. RRIRFRPPRLPRPRPRPWHWPRP  0.00852
68. RRIRMRPPRLPRPRPRPHDPPRP  0.000689
69. RRIRQRPPRLPRPRPRPKVAPRP  -0.00277
70. RRIRKRPPRLPRPRPRPMPLPRP  -0.00591
71. RRIRHRPPRLPRPRPRPQSCPRP  -0.0062
72. RRIRTRPPRLPRPRPRPHPDPRP  -0.00834
73. RRIRSRPPRLPRPRPRPCDRPRP  -0.00911
74. RRIRWRPPRLPRPRPRPEPVPRP  -0.0131
75. RRIRLRPPRLPRPRPRPKEGPRP  -0.0145
76. RRIRHRPPRLPRPRPRPGTGPRP  -0.0184
77. RRIRHRPPRLPRPRPRPRQMPRP  -0.0208
78. RRIRQRPPRLPRPRPRPVHYPRP  -0.0228
79. RRIRQRPPRLPRPRPRPDADPRP  -0.0253
80. RRIRPRPPRLPRPRPRPCHGPRP  -0.0271
81. RRIRERPPRLPRPRPRPMIPPRP  -0.0272
82. RRIRGRPPRLPRPRPRPMSLPRP  -0.0288
83. RRIRGRPPRLPRPRPRPHTWPRP  -0.0293
84. RRIRGRPPRLPRPRPRPWWFPRP  -0.03
85. RRIRLRPPRLPRPRPRPSANPRP  -0.0303
86. RRIRQRPPRLPRPRPRPIYCPRP  -0.0315
87. RRIRIRPPRLPRPRPRPLPIPRP  -0.0341
88. RRIRARPPRLPRPRPRPQSVPRP  -0.037
89. RRIRNRPPRLPRPRPRPDSMPRP  -0.0386
90. RRIRSRPPRLPRPRPRPVGNPRP  -0.0399
91. RRIRLRPPRLPRPRPRPIMDPRP  -0.0403
92. RRIRYRPPRLPRPRPRPLHFPRP  -0.0434
93. RRIRLRPPRLPRPRPRPGETPRP  -0.0544
94. RRIRRRPPRLPRPRPRPVRKPRP  -0.0548
95. RRIRKRPPRLPRPRPRPCSSPRP  -0.0581
96. RRIRNRPPRLPRPRPRPWPIPRP  -0.0597
97. RRIRWRPPRLPRPRPRPSQKPRP  -0.0621
98. RRIRNRPPRLPRPRPRPCWHPRP  -0.0656
99. RRIRDRPPRLPRPRPRPNMFPRP  -0.0684
100. RRIRSRPPRLPRPRPRPANGPRP  -0.0714
101. RRIRRRPPRLPRPRPRPIVHPRP  -0.0757
102. RRIRTRPPRLPRPRPRPSNRPRP  -0.0802
103. RRIRNRPPRLPRPRPRPQPQPRP  -0.0877
104. RRIRSRPPRLPRPRPRPWLGPRP  -0.092
105. RRIRCRPPRLPRPRPRPMMEPRP  -0.105
106. RRIRSRPPRLPRPRPRPMSHPRP  -0.109
107. RRIRWRPPRLPRPRPRPFPMPRP  -0.111
108. RRIRRRPPRLPRPRPRPCYTPRP  -0.112
109. RRIRERPPRLPRPRPRPPVCPRP  -0.119
110. RRIRRRPPRLPRPRPRPECSPRP  -0.121
111. RRIRFRPPRLPRPRPRPVLGPRP  -0.127
112. RRIRPRPPRLPRPRPRPQDPPRP  -0.135
113. RRIRQRPPRLPRPRPRPRVMPRP  -0.139
114. RRIRYRPPRLPRPRPRPPTVPRP  -0.146
115. RRIRYRPPRLPRPRPRPLLEPRP  -0.17
116. RRIRQRPPRLPRPRPRPLISPRP  -0.173
117. RRIRERPPRLPRPRPRPNTQPRP  -0.187
118. RRIRHRPPRLPRPRPRPVAFPRP  -0.187
119. RRIRNRPPRLPRPRPRPHCNPRP  -0.196
120. RRIRFRPPRLPRPRPRPKTMPRP  -0.197
121. RRIRIRPPRLPRPRPRPKTMPRP  -0.198
122. RRIRLRPPRLPRPRPRPLHLPRP  -0.21
123. RRIRQRPPRLPRPRPRPPYQPRP  -0.216
124. RRIRERPPRLPRPRPRPIWIPRP  -0.222
125. RRIRSRPPRLPRPRPRPTYTPRP  -0.24
126. RRIRLRPPRLPRPRPRPHHVPRP  -0.272
127. RRIRNRPPRLPRPRPRPCVNPRP  -0.282
128. RRIRIRPPRLPRPRPRPDVDPRP  -0.297
129. RRIRFRPPRLPRPRPRPRINPRP  -0.314
130. RRIRTRPPRLPRPRPRPSGPPRP  -0.339
131. RRIRTRPPRLPRPRPRPRNKPRP  -0.342
132. RRIRNRPPRLPRPRPRPYRPPRP  -0.379
133. RRIRTRPPRLPRPRPRPSWMPRP  -0.466
134. RRIRCRPPRLPRPRPRPNICPRP  -0.488
135. RRIRTRPPRLPRPRPRPSTFPRP  -0.49
136. RRIRQRPPRLPRPRPRPGTFPRP  -0.499
137. RRIRYRPPRLPRPRPRPFFKPRP  -0.518
138. RRIRYRPPRLPRPRPRPISVPRP  -0.534
139. RRIRFRPPRLPRPRPRPCMCPRP  -0.544
140. RRIRNRPPRLPRPRPRPAFIPRP  -0.579
141. RRIRSRPPRLPRPRPRPCRPPRP  -0.584
142. RRIRNRPPRLPRPRPRPYNQPRP  -0.597
143. RRIRVRPPRLPRPRPRPCQEPRP  -0.68
144. RRIRIRPPRLPRPRPRPYQLPRP  -0.699
145. RRIRHRPPRLPRPRPRPHCLPRP  -0.777
146. RRIRFRPPRLPRPRPRPKMYPRP  -0.815
147. RRIRFRPPRLPRPRPRPLIYPRP  -0.898
148. RRIRHRPPRLPRPRPRPISKPRP  -0.929
149. RRIRVRPPRLPRPRPRPQIHPRP  -1.01
150. RRIRFRPPRLPRPRPRPFVNPRP  -1.51
